{"source": "patent US6673902B2", "about": "“Cyclin D binding factor, and uses thereof” (St. Jude Children's Research Hospital, priority 1996, dated 2004)", "key": {"[1]": {"biological_target": "T1, recombinant DMP1 (Mus musculus, UniProt Q8CE22)", "T1 construct": "made in house; host or cells: Sf9 insect cells, pAcYM1 baculovirus vector; used as crude lysate (~4 ng DMP1 per reaction)", "T1 sequence (Q8CE22 1-761)": "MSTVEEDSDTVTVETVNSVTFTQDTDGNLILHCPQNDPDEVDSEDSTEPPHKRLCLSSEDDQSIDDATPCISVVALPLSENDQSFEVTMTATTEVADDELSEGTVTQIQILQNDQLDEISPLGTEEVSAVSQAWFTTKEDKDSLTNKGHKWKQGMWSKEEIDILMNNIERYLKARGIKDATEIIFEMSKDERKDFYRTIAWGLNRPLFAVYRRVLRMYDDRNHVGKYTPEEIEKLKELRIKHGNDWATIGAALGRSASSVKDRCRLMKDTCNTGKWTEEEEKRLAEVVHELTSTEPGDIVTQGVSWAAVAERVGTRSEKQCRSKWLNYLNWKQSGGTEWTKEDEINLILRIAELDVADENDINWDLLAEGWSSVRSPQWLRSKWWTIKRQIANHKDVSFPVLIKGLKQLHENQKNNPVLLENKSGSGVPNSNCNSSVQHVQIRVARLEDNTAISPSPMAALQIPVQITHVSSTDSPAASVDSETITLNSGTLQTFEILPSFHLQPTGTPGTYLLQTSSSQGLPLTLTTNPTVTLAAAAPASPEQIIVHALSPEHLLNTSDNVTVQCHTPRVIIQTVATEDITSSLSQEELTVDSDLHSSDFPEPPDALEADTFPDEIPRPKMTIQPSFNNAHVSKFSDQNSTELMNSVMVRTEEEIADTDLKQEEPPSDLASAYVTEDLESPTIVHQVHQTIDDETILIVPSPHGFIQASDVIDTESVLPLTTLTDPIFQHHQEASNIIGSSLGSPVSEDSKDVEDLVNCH", "assay": "EMSA competition with Sf9 lysates producing recombinant DMP1", "assay_type": "binding", "details": "excess unlabeled oligonucleotide", "description": "Double-stranded oligonucleotides containing potential DMP1 binding sites (BS1 and BS2) and mutated versions (M1-M4) (FIG. 5B) are end-labeled with ^32P using the Klenow fragment of DNA polymerase and α-^32P-dATP (6000 Ci/mmol; Dupont NEN) (8). Nuclear extracts from mouse NIH-3T3 or CTLL cells are prepared with buffer containing 0.4 M NaCl (2). Mammalian cell extracts (15 μg protein) or Sf9 lysates (corresponding to 5×10^2 infected cells) containing ˜4 ng recombinant DMP1 are mixed with 3 ng of ^32P-labeled probe (1×10^5 cpm) in 15 ul Binding buffer containing 2.5 μg of poly(dI-dC) and 2.5 μg BSA and incubated at 4° C. for 30 minutes. For competition experiments, the indicated amounts of unlabeled oligonucleotides are added to the reactions before addition of the labeled probe. In some experiments, a bacterially produced GST-Ets2 fusion protein containing the complete Ets2 DNA-binding domain (10) is used in place of Sf9 extracts containing recombinant DMP1. Protein-DNA complexes are separated on nondenaturing 4% polyacrylamide gels as described (8). Where indicated, antiserum to DMP1 together with 2.5 μg salmon testis DNA (Sigma; used to reduce nonspecific DNA binding activity caused by serum addition) is preincubated with extracts for 30 minutes at 4° C. prior to initiation of binding reactions. Immune complexes are either removed by adsorption to protein A-Sepharose beads (immunodepletion experiments) or are allowed to remain (“supershift” experiments).\nUsing electrophoretic mobility shift assays (EMSA) performed after mixing a titrated excess (3 ng) of ^32P-end labeled BS1 probe with Sf9 lysates producing DMP1 (˜4 ng recombinant protein per reaction), a BS1-containing protein complex is detected that was competed with an excess of unlabeled BS1 oligonucleotide but not with mutant oligonucleotides M1 and M2 (FIG. 6A). […] More subtle mutations within this region may be tolerated, because high concentrations of M4 competed for BS1 binding to both Ets2 and DMP1 in subsequent studies (FIG. 5B and see below). DMP1 also binds a BS2 probe, and the binding is competed by excess BS2 or BS1 (FIG. 6B). In agreement with the site selection frequencies (FIG. 5A), binding of ^32P-BS1 under equivalent conditions was competed more efficiently by excess unlabeled BS1 than by BS2 (FIG. 6B). […] In agreement, Ets2 binding to BS1 could be competed with excess unlabeled BS1 and M3, but not by BS2 (FIG. 6C). Therefore, although both DMP1 and Ets2 can each bind to BS1 sequences, their exclusive interactions with BS2 and M3, respectively, help to distinguish DMP1 and Ets binding activities (summarized in FIG. 5B)."}, "[2]": {"biological_target": "T1, recombinant DMP1", "assay": "EMSA competition, recombinant DMP1 and 281 base pair ARF promoter fragment", "assay_type": "binding", "details": "200-fold excess of unlabelled oligonucleotide", "description": "Electrophoretic mobility shift assay (EMSA). Recombinant DMP1 protein was prepared in Sf9 cells [Hirai and Sherr, Mol. Cell. Biol. 16:6457-6467 (1996)]. Purified bacterial proteins representing the Ets1 DNA binding domain or full-length Ets1 [Inoue, et al., J. Biol. Chem. 273:29188-29194 (1998)] were used. EMSAs were performed [Inoue and Sherr, Mol. Cell. Biol. 18:1590-1600 (1998)] using either a 281-bp genomic fragment (−225 to +56) or double-stranded oligonucleotides containing the DMP1/Ets site obtained by annealing oligonucleotide 5′-[…]-3′ (sense strand SEQ ID NO:41); DMP1/Ets consensus sequence underlined) with a complementary antisense strand. For competition experiments, a 200-fold excess of unlabelled oligonucleotides was added to reaction mixtures before the probe. To verify the identity of the proteins in shifted complexes, reaction mixtures were incubated with control nonimmune rabbit serum (NRS), serum AF [Hirai and Sherr, Mol. Cell. Biol. 16:6457-6467 (1996)] and M-10 (both to DMP1 carboxylterminal epitopes), S-19 (DMP1 N-terminus), or C-20 (Ets1 C-terminus) before electrophoresis. M-10, S-19, and C-20 were from Santa Cruz Biotechnology.\nThe nucleotide sequence of the proximal promoter region of the murine ARF gene relative to the transcription initiation site as defined by S1 mapping analysis was determined (FIG. 13). […]"}}}
{"substance": "M3: DMP1 deletion mutant (NcoI), amino acids 1-458 of SEQ ID NO:1", "values": [{"measurement": "competition for 32P-BS1 probe binding to DMP1", "setting": "[1]", "value": "does not compete"}, {"measurement": "competition for BS2 probe binding to DMP1", "setting": "[1]", "value": "does not compete"}, {"measurement": "competition for DMP1 binding to the 281 base pair ARF promoter fragment", "setting": "[2]", "value": "did not compete"}]}
